Holding throughout (experiment): mBBr-HPLC of cysteine released by TCEP; Michaelis-Menten fit
What all share (conditions): O-acetyl-L-serine co-substrate 1.0-2.0 mM, 100 µM PLP, pH 7.4, 30 °C

Substrate in data set [1]: N[C@@H](CCC(=O)N[C@@H](CSS)C(=O)NCC(=O)O)C(=O)O
The format is biochemical, Escherichia coli. The source says:
(§1) mBBr-HPLC of cysteine released by TCEP; Michaelis-Menten fit on EcCysK | We then assayed the kinetics of all five cysteine synthases

Substrate in data set [2]: O=S(O)(O)=S
The format is biochemical, Escherichia coli.
Description: as §1

Substrate in data set [3]: N[C@@H](CCC(=O)N[C@@H](CSS)C(=O)NCC(=O)O)C(=O)O
The format is biochemical, Escherichia coli. The source says: (§2) mBBr-HPLC of cysteine released by TCEP; Michaelis-Menten fit on EcCysM | We then assayed the kinetics of all five cysteine synthases
The source holds these as a separate data set.

Substrate in data set [4]: O=S(O)(O)=S
The data set is classed as biochemical, Escherichia coli.
Description: as §2
This is another data set of the same source.

Substrate in data set [5]: N[C@@H](CCC(=O)N[C@@H](CSS)C(=O)NCC(=O)O)C(=O)O
The format is biochemical, Saccharolobus islandicus. The source says: (§3) mBBr-HPLC of cysteine released by TCEP; Michaelis-Menten fit on SiRe_1641 | We then assayed the kinetics of all five cysteine synthases

Substrate in data set [6]: O=S(O)(O)=S
The data set is classed as biochemical, Saccharolobus islandicus.
Description: as §3

One may read the Km as the concentration of substrate that gives half-maximal velocity. By Vmax is commonly meant the rate approached at saturating substrate. Broadly, the kcat is the maximal rate divided by the concentration of active sites. For orientation: kcat/Km means the second-order rate constant that governs catalysis at low substrate concentration.

B1: EcCysK (Escherichia coli K-12) (protein)
chain: MSKIFEDNSLTIGHTPLVRLNRIGNGRILAKVESRNPSFSVKCRIGANMIWDAEKRGVLKPGVELVEPTSGNTGIALAYVAAARGYKLTLTMPETMSIERRKLLKALGANLVLTEGAKGMKGAIQKAEEIVASNPEKYLLLQQFSNPANPEIHEKTTGPEIWEDTDGQVDVFIAGVGTGGTLTGVSRYIKGTKGKTDLISVAVEPTDSPVIAQALAGEEIKPGPHKIQGIGAGFIPANLDLKLVDKVIGITNEEAISTARRLMEEEGILAGISSGAAVAAALKLQEDESFTNKNIVVILPSSGERYLSTALFADLFTEKELQQ
notes: N-terminal His-tag, expressed in E. coli BL21(DE3), Ni-NTA
Turning to B1, in data set [1], the Km was 265 ± 37 µM, the Vmax was 0.163 µM/min/mg and the catalytic constant (kcat) was 9.78 ± 0.665 s⁻¹. Besides, in data set [2], the Km turned out to be 1036 ± 82 µM, the Vmax amounted to 0.074 µM/min/mg and the kcat was found to be 2.45 ± 0.935 s⁻¹.

B2: EcCysM (Escherichia coli K-12) (protein)
chain: MSTLEQTIGNTPLVKLQRMGPDNGSEVWLKLEGNNPAGSVKDRAALSMIVEAEKRGEIKPGDVLIEATSGNTGIALAMIAALKGYRMKLLMPDNMSQERRAAMRAYGAELILVTKEQGMEGARDLALEMANRGEGKLLDQFNNPDNPYAHYTTTGPEIWQQTGGRITHFVSSMGTTGTITGVSRFMREQSKPVTIVGLQPEEGSSIPGIRRWPTEYLPGIFNASLVDEVLDIHQRDAENTMRELAVREGIFCGVSSGGAVAGALRVAKANPDAVVVAIICDRGDRYLSTGVFGEEHFSQGAGI
notes: as for B1
With B2, in data set [3], the Michaelis constant (Km) turned out to be 325 ± 33 µM, the Vmax was 0.155 µM/min/mg, the kcat stood at 5.16 ± 1.55 s⁻¹ and the kcat/Km is 14700 M⁻¹ s⁻¹. For the same protein, in data set [4], the Km was 408 ± 28 µM, the Vmax stood at 0.173 µM/min/mg, the catalytic constant (kcat) was 5.81 ± 0.92 s⁻¹ and the kcat/Km turned out to be 12600 M⁻¹ s⁻¹.

B3: SiRe_1641 (Saccharolobus islandicus REY15A) (protein)
chain: MSNPLHVFSNEQELLEGMWPTPLLKLRIGNDTWAKLEFYNPFSRSVKDRTAWFLFRQALIKNVNHIVEATSGNTGIALASLSSIYGMQFTMFLPVVAPKVYKVLVKLLGGNVIEAGNSTNDVIPLVKRFAEMSNAVNLDQFNNPINVIAHYETTAREIDEQLTSIGKRPSRIIATMGTGGHIAGVAKYFKEKYGNDVEIVGVQPSENSRIPGIKRQNGSNSLLRDIKIDRVVDVSLEEAIDGTISVARTSGILIGISAGATVAAYKRINDVSSTTVLIFPDDAFKYVDILEQTLKEI
notes: as for B1
Consider B3, for which, in data set [5], the Michaelis constant (Km) worked out at 279 ± 32 µM, the Vmax came out at 0.174 µM/min/mg and the kcat came out at 4.92 ± 1.27 s⁻¹. In data set [6], the Km turned out to be 1126 ± 162 µM, the Vmax came to 0.065 µM/min/mg and the kcat came to 1.52 ± 0.511 s⁻¹.

These data come from article PMC13188885, “Zero-valent sulfur is the product of assimilatory sulfite reductase and a substrate of cysteine synthase” (Applied and Environmental Microbiology, 2026).
